Laboratory results from publication PMC4575080, “Biophysical Studies on BEX3, the p75^NTR-Associated Cell Death Executor, Reveal a High-Order Oligomer with Partially Folded Regions” (PLoS ONE, 2015).

B1: Brain Expressed X-linked protein 3 (BEX3) (natural protein, UniProt Q9WTZ9 1-124, looked up)
chain: MANVHQENEEMEQPLQNGQEDRPVGGGEGHQPAANNNNNNHNHNHNHHRRGQARRLAPNFRWAIPNRQMNDGLGGDGDDMEMFMEEMREIRRKLRELQLRNCLRILMGELSNHHDHHDEFCLMP
notes: BEX3 (NADE), cDNA encoding 'the mature BEX3' in pET21d; UniProt Q9WTZ9 is printed in the introduction for BEX3; High-order oligomer in native buffer; also called NADE; p75NTR-associated cell death executor
B2: death domain of p75NTR (amino acids 326 to 417) (domain or fragment, UniProt Q9Z0W1 326-417, looked up)
chain: TASGQALKGDGNLYSSLPLTKREEVEKLLNGDTWRHLAGELGYQPEHIDSFTHEACPVRALLASWGAQDSATLDALLAALRRIQRADIVESL
notes: neurotrophin receptor p75 (p75NTR), death domain, amino acids 326 to 417; UniProt Q9Z0W1 is printed in the introduction for p75NTR; For some experiments the His-tag was removed with TEV protease; also called p75NTR DD; His-p75NTR DD

What was measured:
[1] = target: the molecule itself; assay: SDS-PAGE (SDS-resistant oligomer); refolded BEX3 on SDS-PAGE, before and after addition of 4 or 7 M urea to the sample loading buffer
[2] = target: B1; assay: SPR; p75NTR DD (13 uM) amine-coupled to a CM5 chip (4,000 RU), Biacore X; BEX3 0.2-0.8 uM injected in Buffer A (25 mM MES pH 7.0, 150 mM NaCl, 6 mM beta-ME), 10 uL/min; global fit; apparent Kd = koff/kon; details: both partners purified

Row | Binder | stoichiometry N [1] | Kd [2]
1 | B1 | 2 | 
2 | B2 |  | 550 nM
